The text below walks through data of the supplement of paper PMC10724198.

± gives the standard deviation of the averaged measurements.
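Note: PSI is a weighted mean of sequencing reads over stability bins, variants kept only with over 10 reads, mCherry proximal and sfGFP distal, peptide attached via GGGS linker.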

This data set has as its system Saccharomyces cerevisiae. The data set can be described thus: protein stability index of tFT-peptide fusion (C-terminal peptide) (PSI (0-1 scale)); higher = more stable (slower turnover). The following applies: genetic background: wild type; temperature: 30 C.
Take LFVGCRDPLCGV: the protein stability index amounted to 0.723 ± 0.00029.

LFVMGSACPLRI came in with a protein stability index of 0.681 ± 0.029.

For the sequence LFVPAASRLAFS, the protein stability index amounted to 0.686 ± 0.011.

For LFVSGVPRSWDR, the protein stability index was 0.707 ± 0.19.

LGAAMRSAVEAA had a protein stability index of 0.64 ± 0.013.

In turn, LGCGVSLWVVPG showed a protein stability index of 0.712 ± 0.034.

Sequence LGCSVGESVGAG displayed a protein stability index of 0.68 ± 0.03.

Sequence LGFNRRSKTRMI showed a protein stability index of 0.704 ± 0.014.

For the sequence LGGARWSGLPHV, the protein stability index worked out at 0.707 ± 0.085.

LGGGAGAGYWVG: the protein stability index is 0.741 ± 0.032.

Turning to LGGGAGLRCGGF, the protein stability index is 0.673 ± 0.02.

The sequence LGGGARGSGGGA came in with a protein stability index of 0.727 ± 0.028.

On to LGGGGKNGSERV, for which the protein stability index is 0.696 ± 0.017.

For the sequence LGGRTWTLVRSG, the protein stability index was determined as 0.64 ± 0.033.

The sequence LGGVLSRQPYSE showed a protein stability index of 0.643 ± 0.014.

LGGVRRRDWQEG had a protein stability index of 0.677 ± 0.016.

In turn, LGIVSLDWLWLR displayed a protein stability index of 0.513 ± 0.043.

Sequence LGKSRVHLWTGT yielded a protein stability index of 0.706 ± 0.04.

LGLFECAFLDRS showed a protein stability index of 0.736 ± 0.013.

In turn, LGLPISREASVG came in with a protein stability index of 0.637 ± 0.011.

For the sequence LGLWSSVFGSSL, the protein stability index was determined as 0.743 ± 0.018.

Turning to LGPAPFSPPPPL, the protein stability index came to 0.738 ± 0.041.

The sequence LGPLPHDGFSMF yielded a protein stability index of 0.761 ± 0.011.

Consider LGPPPPPASVCR, for which the protein stability index amounted to 0.647 ± 0.012.

For the sequence LGPRRPGQSGSR, the protein stability index was 0.712 ± 0.011.

For LGPSTCPCEVQS, the protein stability index was 0.677 ± 0.015.

LGRGRGGCLGEL: the protein stability index worked out at 0.5915 ± 0.0034.

Take LGRNLGKDPVEV: the protein stability index is 0.593 ± 0.11.

In turn, LGRNTVIGLCLE displayed a protein stability index of 0.642 ± 0.1.

Take LGRRVGWEVSGE: the protein stability index was 0.687 ± 0.024.

LGSSTGSVESLS came in with a protein stability index of 0.737 ± 0.048.

As for LGTETASSGFSG, the protein stability index turned out to be 0.691 ± 0.029.

For LGTLLWWGAGRG, the protein stability index was 0.708 ± 0.02.

With LGVAFCAPRLFY, the protein stability index was 0.743 ± 0.023.

The sequence LGVDFCRGVVVE came in with a protein stability index of 0.654 ± 0.035.

LGVGGRWVVPGA came in with a protein stability index of 0.722 ± 0.032.

LGVGSVGAKCGS yielded a protein stability index of 0.639 ± 0.0071.

In turn, LGVVGYGLGGGK returned a protein stability index of 0.707 ± 0.0096.

Sequence LHAGWNLISSRL returned a protein stability index of 0.633 ± 0.037.

In turn, LHAPFPHPPPPP had a protein stability index of 0.6713 ± 0.005.

For LHFGSSSSRDFM, the protein stability index amounted to 0.709 ± 0.027.

Regarding LHPTPPPVLAPP, the protein stability index was 0.654 ± 0.12.

Regarding LHRFPMISLLGP, the protein stability index worked out at 0.699 ± 0.018.

For LICRRVRLSMRG, the protein stability index was found to be 0.571 ± 0.028.

LILLTIQSQPPV registered a protein stability index of 0.622 ± 0.0018.

In turn, LIPRCLIPVTRY displayed a protein stability index of 0.655 ± 0.018.

For the sequence LIQSDKTPRTTR, the protein stability index was 0.696 ± 0.012.

Consider LIVIGGGAVNGV, for which the protein stability index was found to be 0.63 ± 0.069.

LIWGRGGSRTGG gave a protein stability index of 0.747 ± 0.062.

With LKDQFKNKNKSS, the protein stability index came to 0.531 ± 0.04.

In the case of LKELDTGVEQDE, the protein stability index amounted to 0.671 ± 0.0096.

LKIDTCSQQEEN: the protein stability index is 0.675 ± 0.11.

Sequence LKKKKNKKQKTE had a protein stability index of 0.6152 ± 0.0053.

LKLQGGCLETGA had a protein stability index of 0.602 ± 0.015.

As to LKNVKFTNNRKK, the protein stability index came out at 0.694 ± 0.014.

With LKQHDSNESASR, the protein stability index came to 0.6565 ± 0.001.

Take LKTGTAAGVKDH: the protein stability index came to 0.684 ± 0.049.

Take LLAGEDGGVGEE: the protein stability index came to 0.653 ± 0.057.

In turn, LLALAPFWVRHK yielded a protein stability index of 0.68 ± 0.011.

Take LLALPFPPSSLF: the protein stability index is 0.701 ± 0.054.

LLALQCSLFTPH had a protein stability index of 0.678 ± 0.15.

Consider LLAPPLPPPRHG, for which the protein stability index was found to be 0.674 ± 0.018.

Turning to LLCSSFSFHCFP, the protein stability index is 0.667 ± 0.0068.

The sequence LLCYSGVIFGSV returned a protein stability index of 0.59 ± 0.087.

As for LLDEHGKRRKKI, the protein stability index worked out at 0.713 ± 0.0011.

As to LLFCFIPCVFWG, the protein stability index came to 0.5096 ± 0.0029.

In the case of LLFFSCGGVSSV, the protein stability index came to 0.657 ± 0.053.

Turning to LLFFSLFFSPLP, the protein stability index worked out at 0.642 ± 0.041.

LLFFSSCLDCFV returned a protein stability index of 0.635 ± 0.026.

For LLFPPVCRPCLS, the protein stability index came out at 0.605 ± 0.11.

For LLFSRVDFSSPL, the protein stability index was 0.804 ± 0.098.

As to LLFYSVPLSSSF, the protein stability index came out at 0.655 ± 0.072.

LLGRSPSPTRPT yielded a protein stability index of 0.65732 ± 0.00035.

In the case of LLGVGYGSGGWR, the protein stability index is 0.633 ± 0.089.

LLGVYVRSFGSK gave a protein stability index of 0.698 ± 0.015.

In turn, LLHMSRLWYTTF showed a protein stability index of 0.595 ± 0.022.

Consider LLKNPFRGTSVF, for which the protein stability index was determined as 0.737 ± 0.11.

In turn, LLLFPRFPPPPL yielded a protein stability index of 0.711 ± 0.038.

LLLPFVSPPVYS showed a protein stability index of 0.569 ± 0.031.

LLLPSLAPTPTA displayed a protein stability index of 0.654 ± 0.025.
